What all share (conditions): protein: recombinant; tags: Halo (N-terminal 10xHis-TEV removed), OregonGreen on Halo; label: 3' CF 647 hydrazide (periodate-oxidized end); single-stranded
Series [1] addresses T1, Halo-SAFB1 RRM (UniProt Q15424 386-485). Nature of the series: EMSA; protein 3.6-102.4 uM; lower affinity than TRA2B RRM; EMSA: 25 mM Tris-Cl pH 7.4, 50 mM KCl, 5% glycerol, 1 mM DTT, ~100 nM RNA, 30 min on ice, 8% native PAGE 0.5x TBE; pull-down: 25 mM Tris-Cl pH 7.4, ~75 mM KCl. (In general: In EMSA bound probe runs differently from free probe, usually more slowly.)
The target in series [2] is T2, Halo-TRA2B RRM (UniProt P62995 111-201).
T2 sequence: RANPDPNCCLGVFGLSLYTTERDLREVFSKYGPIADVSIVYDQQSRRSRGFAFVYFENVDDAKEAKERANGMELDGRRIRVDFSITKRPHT
Nature of the series: EMSA; protein 3.6-102.4 uM; clearly higher affinity than SAFB1 RRM; EMSA: 25 mM Tris-Cl pH 7.4, 50 mM KCl, 5% glycerol, 1 mM DTT, ~100 nM RNA, 30 min on ice, 8% native PAGE 0.5x TBE; pull-down: 25 mM Tris-Cl pH 7.4, ~75 mM KCl.

The target in series [3] is T2, Halo-TRA2B RRM. Kind of series: EMSA; protein 3.6-102.4 uM; lost all interactions; EMSA: 25 mM Tris-Cl pH 7.4, 50 mM KCl, 5% glycerol, 1 mM DTT, ~100 nM RNA, 30 min on ice, 8% native PAGE 0.5x TBE; pull-down: 25 mM Tris-Cl pH 7.4, ~75 mM KCl.
Series [4] deals with T1, Halo-SAFB1 RRM. Kind of series: EMSA; protein 3.6-102.4 uM; barely affected by m6A; EMSA: 25 mM Tris-Cl pH 7.4, 50 mM KCl, 5% glycerol, 1 mM DTT, ~100 nM RNA, 30 min on ice, 8% native PAGE 0.5x TBE; pull-down: 25 mM Tris-Cl pH 7.4, ~75 mM KCl.

T1 sequence (Q15424 386-485): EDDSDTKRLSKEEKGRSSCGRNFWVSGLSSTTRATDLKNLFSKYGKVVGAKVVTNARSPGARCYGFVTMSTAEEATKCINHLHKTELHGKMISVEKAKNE

B1: (AGA)x7 RNA, unmethylated (ssRNA)
RNA: GGGAAGAAGAAGAAGAAGAAGAAGAU
In the case of B1, the binding result in the series with Halo-SAFB1 RRM [1] and with Halo-TRA2B RRM [2] was “binds” throughout.

B2: (m6AGm6A)x7 RNA, methylated (ssRNA)
RNA: GGGAAGAAGAAGAAGAAGAAGAAGAU
modifications: all A are N6-methyladenosine
As to B2, the values for the binding result with Halo-TRA2B RRM [3] and in the series with Halo-SAFB1 RRM [4] were “no binding” and “binds”, respectively.

Source of the values: PMC10901741, “Autonomous transposons tune their sequences to ensure somatic suppression”.
